Experimental data published in the supplement of paper PMC10567573.
± gives the standard deviation.

Assay: protein stability index of a GFP-peptide fusion (GPS, HEK-293T) (PSI 1-6); higher = more stable
[1] = treatment: DMSO, c terminus: a fixed tail appended
[2] = treatment: MLN4924 1 uM, 8 h, c terminus: a fixed tail appended
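Also: 24-mer peptide tiles fused after GFP, lentivirally expressed, FACS-sorted into six equal bins by GFP/DsRed ratio, decoded by Illumina sequencing, PSI is the read-weighted mean bin number.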

Sequence	protein stability index [1]	protein stability index [2]	protein stability index (treatment: DMSO, c terminus: native)	protein stability index (treatment: MLN4924 1 uM, 8 h, c terminus: native)
MMHGRSYSLASGAGGGGSKGNSLK [RAB40C]	4.32 ± 0.061	4.51 ± 0.15		
DTYNDMATLFFNPQESAILQLFHQ [CLCN6]	2.6 ± 0.34	2.43 ± 0.21		
VVLGSGGVGKSALTVQFVQGIFVE [RAP1B]	2.99 ± 0.05	2.96 ± 0.44		
TARPFGAPPPADSAPQQNGQPLRP [PDLIM7]	4.84 ± 0.52	4.92 ± 0.058		
QNDNAPEILYPALPTDGSTGVELA [PCDHGA10]	4.84 ± 0.39	5.2 ± 0.18		
DGLVGMAIVGGMALGVAGLAGLIG [FIS1]	2.33 ± 0.6	2.09 ± 0.5		
TVVKSLIDNSSEIEDEDQILENSS [FAN1]	5.202 ± 0.02	5.38 ± 0.13		
LSSVPSEAQISDPFAPEPTPPTTT [SNAP91]	5.38 ± 0.079	5.3 ± 0.2		
TRRVTFEADENENITVVKGIRLSE [CHCHD3]	4.29 ± 0.13	4.47 ± 0.23		
IDYYTETKILQERAVLGANDPEKN [NSDHL]	4.76 ± 0.22	5.02 ± 0.46		
TLNKCAVMKLEISPHRKRSDDSDE [DLC1]	4.11 ± 0.31	4.29 ± 0.094		
SALGRQRLQDISSLPLPQSLKNYL [SPSB4]	2.85 ± 0.11	3.27 ± 0.6		
HFDATRGWLLTSGTDKVIKLWDMT [WDFY2]	2.43 ± 0.3	2.78 ± 0.41		
IVSNFNYFYHRETENEEQTQLTQN [KCNA4]	3.03 ± 0.12	3.38 ± 0.25		
PEGSVSGSQPNSGLALESSSGLQD [NFE2L1]	5.46 ± 0.2	5.51 ± 0.13		
CASPVTGPGSKRDAHFCAVCSDYA [ESR2]	3.08 ± 0.22	3.16 ± 0.29		
LRSARGSRGGTRGWLPSHEGHLDD [RBMY1A1]	4.7 ± 0.35	4.78 ± 0.17		
ATKSHVDKVIMKLGKTNAKAVSEM [DYNC2LI1]	3.57 ± 0.21	3.51 ± 0.3		
SLVGNLGISGTTTKKGDLQWNAGE [SNAP91]	3.54 ± 0.39	3.62 ± 0.23		
FIPAHVAFDKKVLKFDAYFQEDVP [EFHC1]	2.24 ± 0.23	2.57 ± 0.58		
LKDEEAKVLQLTVRCEALTGELET [CCDC89]	3.86 ± 0.15	3.71 ± 0.25		
LSCLGQQQQEPPLAMGTVSLGQLP [PLAGL1]	3.75 ± 0.32	3.59 ± 0.5		
TSIEPSKSSIIPFRALKRPLQFLG [ZER1]	2.42 ± 0.38	2.22 ± 0.16		

Sequence	protein stability index [1]	protein stability index [2]	protein stability index (treatment: DMSO, c terminus: native)	protein stability index (treatment: MLN4924 1 uM, 8 h, c terminus: native)
KKVYLTGFALDILFAIANGFSPSY [SLC22A15]	2.68 ± 0.28	3.42 ± 0.22		
DAIRGKVGYTRGLHVWQITWAMRQ [SPSB1]	2.38 ± 0.54	2.36 ± 0.42		
LVALAEQHAVQELTKAATSGVGID [RHOBTB1]	4.08 ± 0.29	4.18 ± 0.19		
SYSLSRKKIVHYTCFDQRKRANAA [CDC14A]	2.88 ± 0.28	3.05 ± 0.12		
LLLLLLTFFLRTDAETPPRFTRTP [PTPRD]	2.32 ± 0.43	2.36 ± 0.49		
QVALLRLTWSELFVLNAAQCSMPL [NR2F2]	2.97 ± 0.44	3 ± 0.41		
PSLPSCLCSFLLLLLLQVSSSYAG [MOG]	2.44 ± 0.048	2.77 ± 0.34		
YTVSATAPGYDPETVTVTVGPAEP [CPN1]	3.61 ± 0.13	3.83 ± 0.39		
VVGWFVLFYKPGIVLLLALAKYLK [GULP1]	2.25 ± 0.41	2.37 ± 0.56		
YPPFWDEDQHKLYQQIKAGAYDFP [CAMK2B]	2.85 ± 0.35	3.11 ± 0.056		
INSRRWCSNLTPNVPNVCRMYCSD [SPACA3]	2.13 ± 0.26	2.42 ± 0.33		
STDIGALMYPSYTFSGDVQLAQDD [MMP1]	4.9 ± 0.13	4.74 ± 0.28		
LLRDRTGQQSDTAQLELYQLQVES [SCARA5]	4.42 ± 0.37	4.56 ± 0.13		
TLNILLYEAQDGRGPDNALLEATG [KCTD10]	2.92 ± 0.21	3.29 ± 0.31		
MSLRNRLSKSRENPEEDEDQRNPA [SOAT1]	5.58 ± 0.14	5.45 ± 0.14		
FVCQCYSGYALAEDGKRCVAVDYC [MATN2]	2.29 ± 0.93	2.77 ± 0.46		
EERVETTVTSLKTKVGGTNPNGGS [TPD52L1]	5.11 ± 0.28	5.19 ± 0.21		
SSGCFMEYLENQVIKDKDDSVDAQ [RNF180]	4.59 ± 0.21	4.63 ± 0.19		
CHSCQLYLPSTEFSVSSTSRRIYR [IQUB]	2.45 ± 0.15	2.73 ± 0.54		
LVEDMVSQEEAQGLPSSELDAVEN [ZNF24]	5.5 ± 0.48	5.43 ± 0.15		
PASPERDYSPYYKTIEELRDKILT [KRT13]	3.349 ± 0.006	3.45 ± 0.31		
MAEESSCTRDCMSFSVLNWDQVSR [TENT5C]	2.71 ± 0.29	2.99 ± 0.22		
KTMQSEETRVWHRRDGKWQNVHFH [CAMK2D]	2.85 ± 0.15	3.14 ± 0.16		

Sequence	protein stability index [1]	protein stability index [2]	protein stability index (treatment: DMSO, c terminus: native)	protein stability index (treatment: MLN4924 1 uM, 8 h, c terminus: native)
DDIRKGIVLLEELLPKGSKEEQRD [FIS1]	4.63 ± 0.43	4.6 ± 0.27		
CAPCPRRSEPVVQCQYPSGAEAG [IRX6]			2.67 ± 0.7	2.3 ± 0.41
DDRKLAALLKFHTLDSYEDKQKLK [YJU2B]	3.97 ± 0.28	4.12 ± 0.27		
PSAILRTPESTKPGPVCQPPVSQS [ANKRD40]	4.59 ± 0.23	4.45 ± 0.18		
DEKQCKQCANKVLQHMKAVQADQE [LRRC59]	4.78 ± 0.19	4.63 ± 0.22		
EHVLMFAKLALYPCASLLAFASTC [TMEM175]	3.42 ± 0.23	3.14 ± 0.5		
TQDSARVNPQDGTNTLTRIAENGV [EHMT1]	5.11 ± 0.16	5.1 ± 0.19		
WNITKLSIEYDSEPFGKERDAAIK [CRY1]	2.9 ± 0.29	2.9 ± 0.28		
GLAMALEPNTTFLRKSLKAALKHL [FANCE]	2.48 ± 0.33	2.54 ± 0.62		
RYMLTRDYLTVKVWDLNMEARPIE [PPP2R2C]	2.51 ± 0.3	2.37 ± 0.24		
FIPSLKYVQWSLPFIVFGATGLTS [SLC22A15]	3.14 ± 0.22	3.33 ± 0.36		
GTNEALLRQLRELEEQFALEAGGY [PRPH]	4.07 ± 0.24	3.92 ± 0.26		
QVNGHPDPFDEIILFSLPPALDWD [PTPN9]	2.27 ± 0.23	2.31 ± 0.4		
SEGFESDSSHDSARASEGSDSGSD [SMG5]	5.51 ± 0.3	5.7 ± 0.1		
TPSVPPPASQHSTPAGLPPSRAKP [FBF1]	5.3 ± 0.25	5.22 ± 0.23		
FFVSSINTLVTKTMEDTLMTVKQY [ARFIP2]	3.08 ± 0.64	3.05 ± 1		
RVRGLGLPKLYLPTGPRRGRDELG [CDKN1A]	3.33 ± 0.58	3.43 ± 0.057		
FGDLSLSLVTVGKHLTARVLCLIV [POMT2]	3.39 ± 0.76	2.71 ± 0.48		
PILKRLERPQDRDTPVQNKRRRSV [CDC25B]	5.03 ± 0.49	5.11 ± 0.16		
YNLSPEADESVLWQLFGPFGAVTN [ELAVL3]	2.55 ± 0.28	2.51 ± 0.091		
MEEDIDTRKINNSFLRDHSYATEA [PPP2R2B]	4.77 ± 0.19	4.72 ± 0.12		
EDQHKLYQQIKAGAYDFPSPEWDT [CAMK2B]	4.79 ± 0.17	4.75 ± 0.12		
WMEILILGVVYRSLSFEDELVYAD [ESRRG]	3.77 ± 0.27	2.68 ± 0.25		

Sequence	protein stability index [1]	protein stability index [2]	protein stability index (treatment: DMSO, c terminus: native)	protein stability index (treatment: MLN4924 1 uM, 8 h, c terminus: native)
PPEQGKIFIARRSLLDELLEVDHI [SOAT1]	2.76 ± 0.2	2.93 ± 0.32		
ISLVKREHDFLDRDAIEALCRRLN [DLC1]	2.69 ± 0.18	2.8 ± 0.42		
GTQPRATKHKCRQLTKASLKPRGC [SPACA9]	3.81 ± 0.29	3.95 ± 0.19		
LHVSLGQKLVAAYVLGLLTMVFLR [MOSPD3]	3.17 ± 0.42	2.89 ± 0.28		
MDIESLSVFTEPNRHFYREMQSFS [FBXO33]	2.39 ± 0.33	2.3 ± 0.24		
LYVSGLPKTMSQKEMEQLFSQYGR [ELAVL3]	2.55 ± 0.14	2.66 ± 0.39		
AIPITELTKSQVQDKPYKCTDCGK [ZNF8]	4.25 ± 0.2	4.3 ± 0.21		
EQPHGRSRRREQSSSRNSHLVQHQ [ZNF8]	4.78 ± 0.23	4.76 ± 0.28		
YPDAEDPQLGLDGPGEPDVRDGFS [PSD2]	5.51 ± 0.31	5.46 ± 0.084		
NDPSVNSQAQETTIIASNAEEAEI [TOR1AIP2]	5.5 ± 0.13	5.59 ± 0.34		
PAGAGPSPTFPALGIGMDSCVIPL [SEPHS2]	3.14 ± 0.43	3.26 ± 0.34		
DRDGTINLSEFQHVISRSPDFASS [CIB1]	4.31 ± 0.28	4.31 ± 0.24		
CGPIAGSRQALSFEVPPCNYDPEK	4.24 ± 0.23	4.13 ± 0.46		
QLELVILQSEPHRAGVQWKFAGSF [KCNK9]	2.7 ± 0.54	2.59 ± 0.44		
VLLAVLPVLLLQITVGLVFLCLQY [MOG]	3.18 ± 0.24	3.13 ± 0.32		
KKRRAQQAPPQDSSNKKEKKVLNH [DYRK1B]	5.2 ± 0.32	5.3 ± 0.13		
FRRTDGRCLIWGRKPKVIECSYTS [DHCR7]	2.35 ± 0.17	2.34 ± 0.33		
SLVAILLVFLITAILVKVQLDALP [SLC29A1]	2.35 ± 0.6	2.54 ± 0.58		
PEASDQEEHLSPLDFLHSANFSLG [RNF180]	4.66 ± 0.17	4.64 ± 0.36		
PAPAFQPFFFTGAFPFNMQELVLK [ANKRD40]	2.07 ± 0.82	2.77 ± 1.2		
